Experiment [1] addresses T1, human BDCA-2 on cells (Jurkat-hBDCA-2 cells; human pDCs; human PBMCs) (human, UniProt Q8WTT0 1-213).
T1 sequence (looked up): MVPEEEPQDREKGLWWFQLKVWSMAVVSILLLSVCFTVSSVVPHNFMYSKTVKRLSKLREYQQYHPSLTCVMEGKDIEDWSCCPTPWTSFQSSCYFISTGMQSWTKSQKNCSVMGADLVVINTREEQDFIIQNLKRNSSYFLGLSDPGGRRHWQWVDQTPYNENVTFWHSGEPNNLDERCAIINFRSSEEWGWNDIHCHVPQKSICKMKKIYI
The experiment in a line: cell-based or functional assay.

Experiment [2] has as its target T1, human BDCA-2 on cells (Jurkat-hBDCA-2 …). The experiment is described as follows: cell-based or functional assay. This is another data set of the same source.
Experiment [3] has the same target. The experiment in a line: cell-based or functional assay. This is another data set of the same source.
Experiment [4] has the same target. The experiment is described as follows: cell-based or functional assay. This is another data set of the same source.
For experiment [5] the target is unchanged. The experiment in a line: cell-based or functional assay. The source holds these as a separate data set.
The target is the same in experiment [6]. The experiment is described as follows: cell-based or functional assay. This is another data set of the same source.
For experiment [7] the target is unchanged. The experiment is described as follows: cell-based or functional assay. The source holds these as a separate data set.
Experiment [8] has the same target. The experiment is described as follows: flow cytometry on sorted human pDCs.
The target is the same in experiment [9]. The experiment in a line: flow cytometry on Jurkat-hBDCA-2 cells.
The target is the same in experiment [10]. The experiment in a line: flow cytometry on Jurkat-hBDCA-2 cells. The source holds these as a separate data set.
The target is the same in experiment [11]. The experiment in a line: flow cytometry on Jurkat-hBDCA-2 cells. This is another data set of the same source.
Experiment [12] addresses T2, Human BDCA-2 protein (soluble, Octet analyte) (human, UniProt Q8WTT0 45-213, limits assumed).
T2 construct: Soluble protein used as analyte in BLI
T2 sequence (looked up): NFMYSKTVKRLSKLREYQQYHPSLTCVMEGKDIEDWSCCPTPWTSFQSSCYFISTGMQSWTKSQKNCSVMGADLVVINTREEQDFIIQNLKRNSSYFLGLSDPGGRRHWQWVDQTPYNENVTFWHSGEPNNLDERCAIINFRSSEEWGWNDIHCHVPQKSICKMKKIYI
The experiment in a line: BLI (Octet Red96e), antibody on anti-human IgG sensor, human BDCA-2 protein in solution.

Experiment [13] deals with T2, Human BDCA-2 protein (soluble, Octet …). Described as above. The source holds these as a separate data set.
Experiment [14] concerns the target T3, cynomolgus monkey BDCA-2 on cells (Jurkat-cynoBDCA-2 cells; cynomolgus monkey pDCs) (cynomolgus monkey, UniProt A0A2K5UWP4 1-212).
T3 construct: whole, on cells
T3 sequence: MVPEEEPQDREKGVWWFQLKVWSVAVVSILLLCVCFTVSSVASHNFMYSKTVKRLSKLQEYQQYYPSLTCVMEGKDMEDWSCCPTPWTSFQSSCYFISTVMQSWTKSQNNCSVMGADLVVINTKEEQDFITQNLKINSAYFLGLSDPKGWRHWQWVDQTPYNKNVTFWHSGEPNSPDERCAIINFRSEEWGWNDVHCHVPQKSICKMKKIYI
The experiment is described as follows: flow cytometry on Jurkat-cynoBDCA-2 cells.

In experiment [15] the target is human FcγRIIIa (158V) on Jurkat-human FcγRIIIa (158V)-NFAT cells (human, UniProt P08637 17-254). The experiment is described as follows: cell-based or functional assay.
human FcγRIIIa (158V) on Jurkat-human FcγRIIIa (158V)-NFAT cells, sequence (P08637 17-254 F176V): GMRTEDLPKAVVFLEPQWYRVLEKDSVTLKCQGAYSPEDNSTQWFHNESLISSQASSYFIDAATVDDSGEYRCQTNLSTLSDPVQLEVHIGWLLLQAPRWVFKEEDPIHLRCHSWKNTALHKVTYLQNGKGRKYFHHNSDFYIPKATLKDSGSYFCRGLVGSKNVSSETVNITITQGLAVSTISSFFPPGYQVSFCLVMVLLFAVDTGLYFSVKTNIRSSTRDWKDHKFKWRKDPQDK
The target in experiment [16] is T4, human CLEC4A (human, UniProt Q9UMR7 70-237, limits assumed).
T4 sequence (looked up): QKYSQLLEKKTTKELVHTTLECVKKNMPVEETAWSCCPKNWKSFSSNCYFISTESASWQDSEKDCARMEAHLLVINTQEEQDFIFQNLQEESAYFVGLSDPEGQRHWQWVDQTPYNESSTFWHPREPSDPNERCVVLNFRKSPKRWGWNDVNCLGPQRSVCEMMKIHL
The experiment in a line: ELISA, coated protein 1 µg/ml.

Experiment [17] has as its target T5, human CLEC4E (human, UniProt Q9ULY5 41-219, limits assumed).
T5 sequence (looked up): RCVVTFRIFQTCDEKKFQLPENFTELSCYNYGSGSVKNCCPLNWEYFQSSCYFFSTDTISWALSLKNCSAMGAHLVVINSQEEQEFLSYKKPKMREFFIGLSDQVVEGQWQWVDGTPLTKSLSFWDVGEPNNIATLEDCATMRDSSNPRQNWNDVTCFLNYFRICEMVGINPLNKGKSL
The experiment in a line: ELISA, coated protein 1 µg/ml.

For experiment [18], the target named is T6, human CLEC4D (human, UniProt Q8WXI8 39-215, limits assumed).
T6 sequence (looked up): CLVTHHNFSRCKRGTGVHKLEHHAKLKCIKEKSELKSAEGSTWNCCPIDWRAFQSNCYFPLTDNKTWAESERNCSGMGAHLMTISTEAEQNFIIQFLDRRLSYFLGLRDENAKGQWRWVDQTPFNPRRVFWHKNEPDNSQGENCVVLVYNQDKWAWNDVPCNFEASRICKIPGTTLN
The experiment is described as follows: ELISA, coated protein 1 µg/ml.

Experiment [19] concerns the target T7, human CLEC6A (human, UniProt Q6EIG7 42-209, limits assumed).
T7 sequence (looked up): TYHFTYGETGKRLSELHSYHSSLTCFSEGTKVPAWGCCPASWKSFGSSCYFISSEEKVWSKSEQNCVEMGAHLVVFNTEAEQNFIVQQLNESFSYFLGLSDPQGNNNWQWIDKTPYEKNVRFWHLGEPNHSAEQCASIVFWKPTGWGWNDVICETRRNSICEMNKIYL
The experiment in a line: ELISA, coated protein 1 µg/ml.

For experiment [20], the target named is T3, cynomolgus monkey BDCA-2 on cells …. The experiment in a line: flow cytometry on Jurkat-cynoBDCA-2 cells. This is another data set of the same source.
Experiment [21] concerns the target T8, cynomolgus monkey BDCA-2 protein (acro, CLC-C52H4) (cynomolgus monkey, UniProt A0A2K5UWP4 45-212).
T8 construct: Bought soluble protein; also called cyno BDCA-2
T8 sequence: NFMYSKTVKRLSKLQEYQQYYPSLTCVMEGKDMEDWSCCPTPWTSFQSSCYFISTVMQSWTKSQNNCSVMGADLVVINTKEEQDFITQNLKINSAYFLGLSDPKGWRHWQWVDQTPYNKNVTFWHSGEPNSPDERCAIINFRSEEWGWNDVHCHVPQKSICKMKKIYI
The experiment in a line: BLI (Octet Red96e), antibody on anti-human IgG sensor, cynomolgus monkey BDCA-2 protein in solution.

Read-outs that look alike come from different tables or passages of the source.

B1: BIIB059 (antibody)
chain 1: not shown
chain 2: DIQLTQSPSSLSASVGDRVTITCKASQSVDYDGDSYMNWYQQKPGKAPKLLIYAASTLESGVPSRFSGSGSGTDFTLTISSLQPEDFATYYCQQANEDPRTFGQGTKVEIKRTVAAPSVFIFPPSDEQLKSGTASVVCLLNNFYPREAKVQWKVDNALQSGNSQESVTEQDSKDSTYSLSSTLTLSKADYEKHKVYACEVTHQGLSSPVTKSFNRGEC
As to B1, the “EC50, inhibition of CpGA-induced type I interferon (IFNα) production in human PBMC cells” value (from here on “EC50, inhibition … in human PBMC cells”) is 0.0132 µg/mL in [1], 0.0031 µg/mL in [2], 0.0025 µg/mL in experiment [3] and 0.0021 µg/mL in [6]. The results for the “EC50, inhibition of immune complex-induced type I interferon (IFNα) in human pDC cells” value in experiment [4] and in experiment [5] were 33.4 ng/mL and 6.1 ng/mL, respectively. Moreover, the “EC50, inhibition of immune complex-induced type I interferon (IFNα) production by human pDC cells” value in experiment [7] worked out at 2.1 ng/mL. The EC50 in experiment [8] turned out to be 0.281 µg/mL; in [9], 0.224 µg/mL; in [10], 0.175 µg/mL; in experiment [11], 0.0704 µg/mL. In addition, the Kd is 1.9 nM in experiment [12] and 3.9 nM in [13].

B2: 164C11B8 (murine hybridoma monoclonal antibody) (antibody, V domains shown)
VH: DVILVESGGGLVKPGGSLKLSCAASGITFSTYTMSWLRQTPEKRLEWVATINSGGDNTYYPDSVKGRFTISRDNAKNNLYLQMSSLKSEDTALYYCATYRPYYYGSVLDYWGQGTTLTVSS
VL: DIVLTQSPASLAVSLGQRATISCKASQSVDYDGNSYVNWYQQKPGQPPKLLIYGASNLESGIPDRFSGSGSGTDFTLNIHPVEEEDGATYYCQQSDEDPWTFGGGTKLEIR
notes: Mouse antibody from hybridoma; also called hybridoma 164C11B8; hybridoma antibody 164C11B8
As for B2, the “EC50, inhibition … in human PBMC cells” value in experiment [2] was determined as 0.002 µg/mL. Moreover, the EC50 in experiment [9] stood at 0.189 µg/mL; in [14] it was 0.233 µg/mL.

B3: 17G6A2 (murine hybridoma monoclonal antibody) (antibody, V domains shown)
VH: EVQLVESGGDLVKPGGSLKLSCAASGFTFSSYGMSWVRQTPDKRLEWVATISSGDSYTYYPDSVKGRFTISRDNAKNTLYLQMSSLKSEDTAMYYCARQLYYSYGYYFDYWGQGTTLTVSS
VL: DIVLTQSPASLAVSLGQRATISCRASESVSFHGTHLMHWYQQKPGQPPKLLIYAASNLESGVPARFSGSGSETDFTLNIHPVEEEDAATYFCQQSIEDPPTFGGGTKLEIK
notes: also called hybridoma 17G6A2; hybridoma antibody 17G6A2
Consider B3, for which the “EC50, inhibition … in human PBMC cells” value in experiment [1] worked out at 0.0542 µg/mL. Moreover, the EC50 in experiment [9] came to 0.0968 µg/mL; in [14], 0.107 µg/mL.

B4: 17G6A2_hzH1L7_hIgG1 (antibody)
heavy: not shown
light: DIVLTQSPASLAVSPGQRATITCRASESVSFHGTHLMHWYQQKPGQPPKLLIYAASNLESGVPARFSGSGSETDFTLTINPVEAEDTANYYCQQSIEDPPTFGGGTKVEIKRTVAAPSVFIFPPSDEQLKSGTASVVCLLNNFYPREAKVQWKVDNALQSGNSQESVTEQDSKDSTYSLSSTLTLSKADYEKHKVYACEVTHQGLSSPVTKSFNRGEC
notes: Humanized, human IgG1/kappa (hzVH01 + hzVL07)
Consider B4, for which the “EC50, inhibition … in human PBMC cells” value in [6] was 0.0011 µg/mL. The “EC50, inhibition of immune complex-induced type I interferon (IFNα) production by human pDC cells” value in [7] came to 1 ng/mL. Further, the “EC50, activation of Jurkat-human FcγR IIIa (158V)-NFAT cell line with Jurkat-hBDCA-2 target cells” value in experiment [15] stood at 0.005 µg/mL. In addition, the binding result in experiment [16], in [17], in [18] and in [19] was “no binding (tested: 10 µg/ml)” throughout. For the same molecule, the EC50 in [11] was found to be 0.0595 µg/mL; in [20], 0.0944 µg/mL. For the same molecule, the Kd came out at 2.9 nM in experiment [13] and 4.8 nM in experiment [21]. Besides, the koff in experiment [13] came to 0.000523 s⁻¹; in [21] it was 0.00064 s⁻¹. The figures for the kon in experiment [13] and in experiment [21] were 179000 M⁻¹ s⁻¹ and 130000 M⁻¹ s⁻¹, respectively.

B5: 17G6A2_hzH2L8_hIgG1 (antibody, V domains shown)
VH: EVQLVESGGGLVKPGGSLRLSCAASGFTFSSYGMSWVRQAPGKGLEWVATISSGDSYTYYPDSVKGRFTISRDNAKNSLYLQMNSLRAEDTAVYYCARQLYYSYGYYFDYWGQGTTVTVSS
VL: DIVLTQSPASLAVSPGQRATITCRASESVSFHGTHLMHWYQQKPGQPPKLLIYAASNLESGVPARFSGSGSETDFTLTINPVEANDAANYYCQQSIEDPPTFGGGTKVEIKR
notes: Humanized, human IgG1/kappa (hzVH02 + hzVL08)
With B5, in experiment [6], the “EC50, inhibition … in human PBMC cells” value is 0.0011 µg/mL. Also, the binding result in [16], in experiment [17], in experiment [18] and in experiment [19] was “no binding (tested: 10 µg/ml)” in each case. For the same molecule, the EC50 in [11] was 0.0222 µg/mL; in experiment [20], 0.0383 µg/mL. This molecule registered a Kd in [13] of 1.7 nM. This molecule returned a koff in experiment [13] of 0.000261 s⁻¹. This molecule registered a kon in [13] of 154000 M⁻¹ s⁻¹.

The record behind these values is patent publication EP4775675A1 (Shanghai Hongcheng Biopharmaceutical Co., Ltd., dated 2026).
